Patent publication US20220184120A1

Target: full-length MUC1 expressed on HCT-116 cells (cleavage resistant single cell clone) (Homo sapiens (Human)) (UniProt P15941)
Test: flow cytometry, HCT-MUC1-41TR cells (FIG. 36D)

percent positive cells: 95%
Substance: VU4H5 commercially available mouse monoclonal anti-MUC1 tandem repeat antibody
